# Reference: the DeepSol protein solubility set
# Test: soluble on expression in E. coli; label from the status in PepcDB or PDB records
row,Sequence,soluble on expression in E. coli
1,MGHHHHHHSHMTWKGGGGWMAAVTHGPGITWGSLLPSAVRQGEQKCKNTDVYFSKLGGGGVPPDSFQRADCGGPTVYPTPARESLSFGTPGFPELRGKLILHVSIAVVVFLFGPGRAGEGPSRLQEASRVSWTLLCRPQAALQTPVRWDDFRRSQPGTARPSAWEPVQGAVS,soluble
2,MGHHHHHHSHMVNVKGSTKKSNLDRFLHCITPLVPPQSLPKTEIRTLNRLWHPWERQKVEFFRLSDLWDCYDEWSAYGASVPIHVTNGESLVQYYVPYLSAIQIFTSHSSLIRLREESEDGECEGRDPFSDSGSDESVSEEGLENNTLLHPSDRLGYLYLQYFERSAPYTRVPLMDKINELAQRYPGLMSLRSVDLSPASWMSVAWYPIYHIPMGRTIKDLSTCFLTYHTLSSSFQDMEPEENGGDKERVRREGEDITLLPFGMATYKMQGDVWLSQDHDDQERLASLYSVADSWLKQLRVQHHDFNYFCNMSMTHRG,soluble
3,MGHHHHHHSHMWSSREIEDLGLTFAIAIDKGKETNTEKELKEEGGSYPKKDNITLTYQFVNEKAAGAGTSGGGGSGQGAQKAYINISETGDSLQQIGSEVALRRDREVFSPHLKVVVMSEDVLHTFPIDEMLDQFFRDNEIRLSCLVLSAKGEARDALQLKENGEIPAFRLIGLGENEHKVSRILPPMTLAKLIGKLHSGSSFLLQNVVAANGAVKYSGAAVINGKSKKMIGTLNEYETEGITWIRGEGKGGVVKSHDKKSQQTLAYDINKIKSRIQPIVKGKDISFHVDIESEGDLVENWNTKEALDTQFIDRLETTIENEVKKIVGQVLKKIQHDYKADVAGFDESFRLTYPHLWKRVKNNWDDTFSKADITYSVNVTITHFGTVKTQ,soluble
4,MGHHHHHHSHVRSPQNQYPAELMRRFELYFQGPSSNKPRVIREVRADSVGKLVTVRGIVTRVSEVKPKMVVATYTCDQCGAETYQPIQSPTFMPLIMCPSQECQTNRSGGRLYLQTRGSRFIKFQEMKMQEHSDQVPVGNIPRSITVLVEGENTRIAQPGDHVSVTGIFLPILRTGFRQVVQGLLSETYLEAHRIVKMNKSEDDESGAGELTREELRQIAEEDFYEKLAASIAPEIYG,soluble
5,MGHIIDISKWNGDINWSIAKQHIDFIIARVQDGSNYVDPLYKGYVQAMKQHGIPFGNYAFCRFVSIADAKKEAQDFWNRGDKSATVWVADVEVKTMNDMRAGTQAFIDELYRLGAKKVGLYVGHHMYTPFGMANVKSDFVWIPRYGGNKPAYPCDIWQYTETGNVPGIGKCDLNSLIGNKSLSWFTESATQESVQAPTQNIIQSGAFSPYETPDVTGALTSLKMTAKFILKPDGLTYFISDPTSDAQLNAMKEYLDRKGWWYEVK,not soluble
6,MGIGNENKGFITASADALINWVRTGSLWPVTTGLACCAVEMMHAGAARYDLDRFGIVFRPSPRQSDVLIVAGTLCNKMAPALRQVYDQMPDPKWVISMGSCANGGGYYHYSYSVVRGCDRIVPVDIYVPGCPPTAEALVYGIIQLQNKIIRKDTIARK,not soluble
7,MGKEMASEYELGQVRLGEFQLYTNGEELYRKLFEDINDAEKYIYIHFYIVGKDEISQEFLQLLEKKASSGVEVKLSVDRIGGYKLKKKVISRLKENGVKFTFSKKPKLKNVFYSLHQRNHRRIVTIDGKVSYVGGFNIGKEYLGQNPKFGPWRDYHVRIHGEGAADMERKFAEDWKEDTGEKMPIHESIPTLGNVKYQYLFSNGKGLWEKYGALLKKAKKSLIIATPYFVPSKEMVKELKAALNRGVNVKILVPFKSDAILLKQAAYPYLKDMLHAGAEIYQYRNGFFHGKVTIIDGEIVDIGTANFDNRSFYLNCESNCIIYDKTVVDEVWSRLQVDFHKSKRFSEEDFEKISRWDWFLARIANVLASYL,not soluble
8,MGKEYHVAVVGATGAVGTRMIELLAETSLPIASVRLLASKRSAGQEIQFKGQPLIVEELVPESFEGIDLALFSAGGSISEKFAPEAVKRGAVVVDNTSHFRMAKDVPLVVPEVNPEALKNHQGIIANPNCSTIQMMVALEPIRQAFGLERIIVSTYQAVSGAGIRAINELKEQAEDFLEGKPVSEWSAEILPAGSDEKHYPIAFNALPQIDVFSEAGYTYEEWKMMNETKKIMGDNKLKVVATCVRIPVISGHSESVYIEVKQADASVSAIQELMAQAPGVILQDEPSEQLYPQALNSVNQKETFVGRIRQDVDVKNGFHLWIVSDNLLKGAAWNSVQIAETLHEMNLLRVPEND,not soluble
9,MGKKYKNIVLLKGLEVINDYHFRMVKSLLSNDLKLNLKMREEYDKIQIADLMEEKFRGDAGLGKLIKIFEDIPTLEDLAETLKKEKLKVKGPALSRKRKKEVDATSPAPSTSSTVKTEGAEATPGAQKRKKSTKEKAGPKGSKVSEEQTQPPSPAGAGMSTAMGRSPSPKTSLSAPPNTSSTENPKTVAKCQVTPRRNVLQKRPVIVKVLSTTKPFEYETPEMEKKIMFHATVATQTQFFHVKVLNTSLKEKFNGKKIIIISDYLEYDSLLEVNEESTVSEAGPNQTFEVPNKIINRAKETLKIDILHKQASGNIVYGVFMLHKKTVNQKTTIYEIQDDRGKMDVVGTGQCHNIPCEEGDKLQLFCFRLRKKNQMSKLISEMHSFIQIKKKTNPRNNDPKSMKLPQEQSQLPNPSEASTTFPESHLRTPQMPPTTPSSSFFTKKSEDTISKMNDFMRMQILKEGSHFPGPFMTSIGPAESHPHTPQMPPSTPSSSFLTTLKPRLKTEPEEVSIEDSAQSDLKEVMVLNATESFVYEPKEQKKMFHATVATENEVFRVKVFNIDLKEKFTPKKIIAIANYVCRNGFLEVYPFTLVADVNADRNMEIPKGLIRSASVTPKINQLCSQTKGSFVNGVFEVHKKNVRGEFTYYEIQDNTGKMEVVVHGRLTTINCEEGDKLKLTCFELAPKSGNTGELRSVIHSHIKVIKTRKNKKDILNPDSSMETSPDFFF,soluble
10,MGKLYVFDHPLIQHKITYIRDKNTGTKDFRELVDEVASLMAFEITRDLPLKDIEIETPVSKATTKVIAGKKLGLIPILRAGLGMVDGILKLIPAAKVGHVGLYRDPKTLQPVEYYVKLPTDVEERDFIVLDPMLATGGSAAEAINSLKKRGAKQIKLMCIVAAPEGVKVVQEEHPDVDIYVAALDEKLNDHGYVVPGLGDAGDRLFGTK,not soluble
11,MGKRLKSNARKSAVNKLVKKTDNRIKEEQRVIRTPKVDEQELKLVRAPKISSAMFMKYNTQLGPPFHVIVDTNFVNFAVKNRIDMFQGFMDCLFAKTIVYATDCVLAELEKVRRFKIALKVLKDPRVQRLKCEHKGTYADDCLVQRVTQHKCYIVATCDRDLKRRIRKIPGVPIMYIVNHRFSIERMPDAYGAPMN,not soluble
12,MGKSYKEIIELLDCNQTTIWRNVKKYEEFGLDSLLQETRGGRNHAYMTVEEEKAFLARHLKATEAGEFVTIDALFQVYKKECG,not soluble
13,MGKYTEQAKLAAVKEYCAGKAGLRDVAHRHDVDFSCLRQWVAAYQIHGPAALKEKRRQRYSDEFKLAVLKRMHDERLSLRQTAALFDIRQFGIINLWQRLFDEGALNASSKPPKKAGRPRKMTTPLPPVNSSPINDESRSRDELLAEVKQLRMEVDYLKKLDALVQKKQRIAQQKKRKSLEHHHHHH,not soluble
14,MGLAQSHSRTPSRDPLPNDHQVMDVYEESGPRRGRKRKAAKGSEIEMKKVAKLNTCAYVYQKLFLQGENSDIVLAACGREWRVHKLYLKQTKFFESMFDGLWTESNSGRVQMEITDPNIDADGLNSVLGSLYHNEIEIDLDKIEGTVAAASYIVLDSVTDRCSEMMIEALSTKNAVRFYDVSTKYGLEKVREKSMEVLLHQFWKIMTDREKLNEVDRQLFVTLLNSPNLLIIEGEFDLYKVVKSWIYMREVPDCCKDDSPETFTQNASKFFKESKTSMFIKYADIFASLRIEQFLTCSETIKTVKSDALIPLSIVDEMTSALWSSLLENEESPKTLEMDDDEFFKRCIRLGRSLDSFPKCWRWIGFNFGVDLLLHVNDYSVCIKRNCLNQKAPYSVNLKSKHVLHYRLVICDSNGQILYDSGKTTWEMKPDEARTIYRMSEDLATQISVHFQYLIHQPICSTGHYVNKYLDDQNSTDDEDDEEEEDDDGDDEEDSS,not soluble
15,MGLFDFFKKKSSSEKTPIEDGDKTVVKSEDTDDSAPGWEAIDAEFDRLYPDQPNPLHYGTIVKYMFGGPDPLDGISVYDAGDFWHFVSYGLSELYTKESTDSEYSGYGIELTFKLKKSTNDEEEIKNGCGLLQYVARYIFKTGKVVLPEEYIYMKQTVGIDIQQKSKLTGFLTVSDNLAKPLDTPHGKVEFVTLIGATDAELRSVYESETSKLEVRKLLQELGNQITDYNRQSLVLEHHHHHH,not soluble
16,MGLKIGDIVSRKSYGSDILFKVVDIKYEKGRKIVVLKGICYRLEADAPETDLIVQPDSYVREYNARVNRAINEKLKSLNESLMREKTKKKFFRDAAKENNENFPRPGKVLHVDGDSDYLDTCMEEYRKLGMDAVGVYVKEKEQPLKIYNLLKEHKPDILVLTGHDGVIKSEKGYSDITNYRNSKYFVEAVREARRFDGNLDSLVIFAGACQSMFKKIIEAGANFASSPYRVLIHALDPVMVCEKIAFTSINQVISPQDVISKTITGVKGIGGIETRGKYRDGFPREPYNIK,soluble
17,MGNQMSVPQRVEGQENEPEAETYQDNASALNGVPVVVSTHTVQHLEEVDLGISVKTDNVATSSPETTEISAVADANGKNLGKEAKPEAPAAKSRFFLMLSRPVPGRTGDQAADSSLGSVKLDVSSNKAPANKDPSESWTLPVAAGPGQDTDKTPGHAPAQDKALSAARDPTLLPPETGGAGGEAPSKPKDSSFFDKFFKLDKGQEKVPGDSQQEAKRAEHQDKVDEVPGLSGQSDDVPAGKDIVDGKEKEGQELGTADCSVPGDPEGLETAKDDSQAAAIAENNNSIMSFFKTLVSPNKAETKKDPEDTGAEKSPTTSADLKSDKANFTSQETQGAGKNSKGCNPSGHTQSVTTPEPAKEGTKEKSGPTSLPLGKLFWKKVVCESPVEIIKSKEVESALQTVDLNEGDAAPEPTEAKLKREESKPRTSLMAFLRQMSVKGDGGITHSEEINGKDSSCQTSDSTEKTITPPEPEPTGAPQKGKEGSSKDKKSAAEMNKQKSNKQEAKEPAQCTEQATVDTNSLQNGDKLQKRPEKRQQSLGGFFKGLGPKRMLDAQVQTDPVSIGPVGKSK,soluble
18,MGNRLMTSGAQGTNAAVIRGAMRADPNLLTVILPQSLDRQPRESREQLEKVIHLVEHAENDHLSLAEASTLCNQAIVTRCQQLICFAFHDSHTLLETCRYAEDQHHLVTLFYFDLEHHHHHH,soluble
19,MGQQLLSHQSVSSQWLANQSATSTLPLLDLSLLSGSDTERQAFLTALRHAARDVGFFYLTGHGIDTSLLRQIQILSRQFFALSDEEKLSIAMIRSPHFRGYNRAASEFTRGQPDWREQFDIGAERTPLPQIAGAPSWTRLQGPNQWPTALPELKPVLLQWQEEMTRMSLRLLRAFALALDLDEQAFDALYGDKPNEHIKLIRYPGREATQSGQGVGAHKDSGFLSFLLQDTQRGLQVEVEEGQWIDAVPREGTFVVNIGELLELASNGYLRATVHRVETPPAGIDRLSIAFFLGARLDAVVPLYPLSAALAAEARGPASDPHNPLFRDVGLNYLKGRLRSHPDVAERYYSDALCS,not soluble
